In patent publication US20040203002 (published 2004):

Legend:
[1] = molecular target: T1, Zif268 wildtype (three zinc fingers, phage displayed) (Mus musculus, UniProt P08046 P08046:333-421); experiment: ELONA; apparent Kd, phage ELISA, PBS/Zn, RT
[2] = molecular target: T1, Zif268 wildtype (three zinc fingers, …); experiment: apparent Kd interpolated from microarray signal 0.150
[3] = molecular target: T1, Zif268 wildtype (three zinc fingers, …); experiment: apparent Kd interpolated from microarray signal 0.085
[4] = molecular target: T1, Zif268 wildtype (three zinc fingers, …); experiment: apparent Kd interpolated from microarray signal 0.372
[5] = molecular target: T1, Zif268 wildtype (three zinc fingers, …); experiment: apparent Kd interpolated from microarray signal 0.320
[6] = molecular target: T1, Zif268 wildtype (three zinc fingers, …); experiment: ELONA; negative control; apparent Kd; microarray signal 0.052

B1: Zif268 site TAG (dsDNA)
DNA 1: TATATAGCGTAGGCGTATATATCAAGTCAATCGGTCC
DNA 2: GGACCGATTGACTTGATATATACGCCTACGCTATATA
modifications: [none]
[1]
  Kd: 6.7 nM

B2: Zif268 site AGG (dsDNA)
DNA 1: TATATAGCGAGGGCGTATATATCAAGTCAATCGGTCC
DNA 2: GGACCGATTGACTTGATATATACGCCCTCGCTATATA
modifications: [none]
[1]
  Kd: 54 nM

B3: Zif268 site GAG (dsDNA)
DNA 1: TATATAGCGGAGGCGTATATATCAAGTCAATCGGTCC
DNA 2: GGACCGATTGACTTGATATATACGCCTCCGCTATATA
modifications: [none]
[2]
  Kd: 75 nM

B4: Zif268 site TCG (dsDNA)
DNA 1: TATATAGCGTCGGCGTATATATCAAGTCAATCGGTCC
DNA 2: GGACCGATTGACTTGATATATACGCCGACGCTATATA
modifications: [none]
[3]
  Kd: 180 nM

B5: Zif268 site TTG (dsDNA)
DNA 1: TATATAGCGTTGGCGTATATATCAAGTCAATCGGTCC
DNA 2: GGACCGATTGACTTGATATATACGCCAACGCTATATA
modifications: [none]
[1]
  Kd: 71 nM

B6: Zif268 site GGG (dsDNA)
DNA 1: TATATAGCGGGGGCGTATATATCAAGTCAATCGGTCC
DNA 2: GGACCGATTGACTTGATATATACGCCCCCGCTATATA
modifications: [none]
[4]
  Kd: 28 nM

B7: Zif268 site CGG (dsDNA)
DNA 1: TATATAGCGCGGGCGTATATATCAAGTCAATCGGTCC
DNA 2: GGACCGATTGACTTGATATATACGCCCGCGCTATATA
modifications: [none]
[5]
  Kd: 35 nM

B8: Zif268 site AAA (dsDNA)
DNA 1: TATATAGCGAAAGCGTATATATCAAGTCAATCGGTCC
DNA 2: GGACCGATTGACTTGATATATACGCTTTCGCTATATA
modifications: [none]
[6]
  Kd: > 5000 nM

B9: Zif268 site CAG (dsDNA)
DNA 1: TATATAGCGCAGGCGTATATATCAAGTCAATCGGTCC
DNA 2: GGACCGATTGACTTGATATATACGCCTGCGCTATATA
modifications: [none]
[1]
  Kd: 380 nM
